Results on one protein are retold here after PMC3269570 (European Biophysics Journal, 2011).

The data set deals with the molecule itself. As to the kind of experiment: cross-linking.

As to MQRINKNVVLALLTLTSSAFLLFQLYYYKHYLSARN [N-terminal transmembrane domain of Fukutin-I (FK1TMD), unlabelled peptide], the “stoichiometry N” value turned out to be 2.
